Data reported in PMC6962393, “Targeting the tumor vasculature with engineered cystine-knot miniproteins” (Nature Communications, 2020).
Residue numbers refer to the chain shown, from its start. In names and notes the source's numbering stands. Blank lines part the entries; values can stand above or below the binder they belong to.

Tests used:
Assay in all cases: ELISA
ELISA = substrate: FN-B, recombinant human fibronectin extra domain B (EDB) as a single domain; conditions: chain shown with the change; pre-coated human FN-B; detection with HRP-conjugated anti-S-tag antibody; parent: est. 100; read off a plot
[1] = biological target: FN-67B89, human fibronectin EDB flanked by its surrounding type III domains; conditions: chain shown with the change, FN-67B89 coated 1 µg/well, read off a plot
[2] = biological target: FN-6789, human fibronectin type III domains 6–9 without EDB; conditions: chain shown with the change, FN-6789 coated 1 µg/well, read off a plot
FN-6789, human fibronectin type III domains 6–9 without EDB, sequence (chain, as listed by the source): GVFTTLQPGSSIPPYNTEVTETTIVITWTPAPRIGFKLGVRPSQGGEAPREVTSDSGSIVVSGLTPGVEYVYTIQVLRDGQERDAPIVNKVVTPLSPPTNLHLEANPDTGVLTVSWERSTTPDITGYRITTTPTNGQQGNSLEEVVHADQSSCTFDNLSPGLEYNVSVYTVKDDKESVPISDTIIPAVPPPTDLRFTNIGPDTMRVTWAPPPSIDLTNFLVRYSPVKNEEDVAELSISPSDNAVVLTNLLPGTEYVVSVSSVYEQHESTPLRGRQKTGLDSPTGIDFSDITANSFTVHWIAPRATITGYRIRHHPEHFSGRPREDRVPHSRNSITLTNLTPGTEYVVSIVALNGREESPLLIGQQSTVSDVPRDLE

FN-B, recombinant human fibronectin extra domain B (EDB) as a single domain, sequence (chain, as listed by the source): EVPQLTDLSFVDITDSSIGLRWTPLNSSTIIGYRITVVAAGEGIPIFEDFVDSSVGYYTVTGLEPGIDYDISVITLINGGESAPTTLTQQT
FN-67B89, human fibronectin EDB flanked by its surrounding type III domains, sequence (chain, as listed by the source): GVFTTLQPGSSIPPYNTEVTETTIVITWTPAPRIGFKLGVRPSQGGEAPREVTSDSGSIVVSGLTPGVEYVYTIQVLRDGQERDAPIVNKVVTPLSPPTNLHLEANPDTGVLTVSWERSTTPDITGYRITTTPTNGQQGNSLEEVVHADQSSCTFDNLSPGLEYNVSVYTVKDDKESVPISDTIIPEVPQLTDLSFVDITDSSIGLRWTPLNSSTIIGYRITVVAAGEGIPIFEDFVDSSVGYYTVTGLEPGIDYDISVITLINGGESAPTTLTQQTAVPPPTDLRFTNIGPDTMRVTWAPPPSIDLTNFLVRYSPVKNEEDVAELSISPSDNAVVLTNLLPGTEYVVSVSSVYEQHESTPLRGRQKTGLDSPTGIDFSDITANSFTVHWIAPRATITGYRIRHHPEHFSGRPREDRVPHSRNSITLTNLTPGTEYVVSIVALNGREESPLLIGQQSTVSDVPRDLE

B1: Trx-MC-FN-010, Thioredoxin-A fusion of cystine-knot miniprotein MC-FN-010 P1A (peptide)
chain: AMCTQRKNRIRLCRRDSDCTGACICRGNGYCG
- percent of parent (ELISA): 130%

B2: Trx-MC-FN-010, Thioredoxin-A fusion of cystine-knot miniprotein MC-FN-010 K7A (peptide)
chain: B1 chain with A1P, K7A
- response (Absorbance (450 nm)) ([1]; 1.56 nM Trx-miniprotein, parent: est. 0.70): 0.62
- response (Absorbance (450 nm)) ([1]; 3.13 nM Trx-miniprotein, parent: est. 1.5): 1.1
- response (Absorbance (450 nm)) ([1]; 6.25 nM Trx-miniprotein, parent: est. 2.2): 1.7
- response (Absorbance (450 nm)) ([1]; 12.5 nM Trx-miniprotein, parent: est. 3.0): 2.4
- response (Absorbance (450 nm)) ([1]; 25 nM Trx-miniprotein, parent: est. 3.4): 2.9
- response (Absorbance (450 nm)) ([1]; 50 nM Trx-miniprotein, parent: est. 3.7): 3.1
- response (Absorbance (450 nm)) ([2]; 25 nM Trx-miniprotein, parent: est. 0.30): 0.09
- response (Absorbance (450 nm)) ([2]; 50 nM Trx-miniprotein, parent: est. 0.62): 0.13
- percent of parent (ELISA): 320%

B3: Trx-MC-FN-010, Thioredoxin-A fusion of cystine-knot miniprotein MC-FN-010 R9A (peptide)
chain: B1 chain with A1P, R9A
- percent of parent (ELISA): 5%

B4: Trx-MC-FN-010, Thioredoxin-A fusion of cystine-knot miniprotein MC-FN-010 N8A (peptide)
chain: B1 chain with A1P, N8A
- percent of parent (ELISA): 88%

B5: Trx-MC-FN-010, Thioredoxin-A fusion of cystine-knot miniprotein MC-FN-010 R6A (peptide)
chain: B1 chain with A1P, R6A
- percent of parent (ELISA): 83%

B8: Trx-MC-FN-010, Thioredoxin-A fusion of cystine-knot miniprotein MC-FN-010 Q5A (peptide)
chain: B1 chain with A1P, Q5A
- percent of parent (ELISA): 65%

B9: Trx-MC-FN-010, Thioredoxin-A fusion of cystine-knot miniprotein MC-FN-010 M2A (peptide)
chain: B1 chain with A1P, M2A
- percent of parent (ELISA): 100%

The remaining lines, values ahead:

- percent of parent (ELISA): 71%
B6: Trx-MC-FN-010, Thioredoxin-A fusion of cystine-knot miniprotein MC-FN-010 R14A (peptide)
chain: B1 chain with A1P, R14A

- percent of parent (ELISA): 100%
B7: Trx-MC-FN-010, Thioredoxin-A fusion of cystine-knot miniprotein MC-FN-010 T4A (peptide)
chain: B1 chain with A1P, T4A

- percent of parent (ELISA): 61%
B10: Trx-MC-FN-010, Thioredoxin-A fusion of cystine-knot miniprotein MC-FN-010 R15A (peptide)
chain: B1 chain with A1P, R15A
